Experimental findings from paper PMC4104756 are described below.

The target of the experiment is poly-(α,β)-DL-aspartic acid sodium salt. The experiment can be described thus: turbidity at 600 nm + light microscopy. To be noted: scale: polyHis:polyAsp.

Consider poly-L-histidine (peptide), for which the volume ratio polyHis:polyAsp at maximum turbidity was determined as 0.82.
